Laboratory results: publication PMC7335050, “Characterization of an alternative BAK-binding site for BH3 peptides” (Nature Communications, 2020)

Target: T1, BAKΔTM (human, UniProt Q16611 1-186)
T1 construct: BAK without the transmembrane segment, human, residues 1-186 of GenBank BC004431, in pET29b(+); Named His6-BAKΔTM in the liposome and cytochrome c assays; no tag removal is described; also called His6-BAKΔTM; WT BAKΔTM; source: E. coli BL21, purified (Ni2+-NTA-agarose, Superdex S200)
T1 sequence (looked up): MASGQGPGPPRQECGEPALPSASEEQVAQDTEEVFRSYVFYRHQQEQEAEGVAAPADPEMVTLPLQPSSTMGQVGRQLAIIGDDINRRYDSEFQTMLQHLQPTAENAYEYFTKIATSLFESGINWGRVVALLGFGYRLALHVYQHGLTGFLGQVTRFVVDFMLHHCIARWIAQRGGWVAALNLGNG
Assay: SPR; BAKΔTM or mutants immobilised on a CM5 chip (Biacore T200; about 4000 RU in the mutant comparisons), BH3 peptides injected at 30 µl per min for 1 min, 25 °C, 10 mM HEPES pH 7.4, 150 mM NaCl, 0.05 mM EDTA, 0.005% polysorbate 20; steady-state analysis, approximate constants
Settings: both partners purified

HQAEVQIARKLQCIADQFHRLHVQQH [BMF BH3 peptide]
Kd: < 1 µM
